[ ]: non-standard residue; d: D form. βSer = β-serine (lower case s in P1); βArg = β-arginine (lower case r); βLeu = β-leucine (lower case l)
T1: purified recombinant ADAM8
T1 sequence (Q05910 whole entry, species assumed, looked up): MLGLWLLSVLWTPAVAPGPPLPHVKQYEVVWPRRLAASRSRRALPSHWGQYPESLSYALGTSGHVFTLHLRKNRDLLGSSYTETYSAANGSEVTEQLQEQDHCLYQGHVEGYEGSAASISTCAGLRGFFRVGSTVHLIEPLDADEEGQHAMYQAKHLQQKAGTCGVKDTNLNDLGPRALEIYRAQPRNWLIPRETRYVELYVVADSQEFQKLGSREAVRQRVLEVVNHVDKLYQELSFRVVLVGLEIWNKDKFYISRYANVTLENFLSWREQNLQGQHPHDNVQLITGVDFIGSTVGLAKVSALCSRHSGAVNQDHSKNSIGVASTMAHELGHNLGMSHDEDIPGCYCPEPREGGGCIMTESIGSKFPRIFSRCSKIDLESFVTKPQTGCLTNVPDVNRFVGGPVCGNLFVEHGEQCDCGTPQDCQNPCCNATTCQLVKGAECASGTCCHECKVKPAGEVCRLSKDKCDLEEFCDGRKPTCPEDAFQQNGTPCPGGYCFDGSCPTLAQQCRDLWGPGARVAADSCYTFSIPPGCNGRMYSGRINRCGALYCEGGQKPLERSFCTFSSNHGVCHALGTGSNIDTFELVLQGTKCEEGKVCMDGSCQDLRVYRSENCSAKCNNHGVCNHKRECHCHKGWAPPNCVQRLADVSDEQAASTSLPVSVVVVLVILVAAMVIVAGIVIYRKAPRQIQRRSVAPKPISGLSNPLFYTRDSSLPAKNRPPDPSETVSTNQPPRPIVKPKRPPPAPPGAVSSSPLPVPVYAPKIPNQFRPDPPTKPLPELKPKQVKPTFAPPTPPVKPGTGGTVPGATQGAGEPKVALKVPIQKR


Assays:
Assay in all cases: cell-based or functional assay
[1] = molecular target: T1, purified recombinant ADAM8
[2] = molecular target: T1, purified recombinant ADAM8; remark: listed apart in the source
[3] = molecular target: T1, purified recombinant ADAM8; remark: listed apart in the source

Binder	IC50 of inhibition of ADAM8 catalytic activity [1]	A8 Inhibition (IC50) [2]	ADAM inhibition with P1 (IC50; CD23 fluorogenic substrate) [3]
cyclo(RL[βSer]KDK) [cyclic peptide P1, c(RLsKDK), cyclo(Arg-Leu-{β-Ser}-Lys-Asp-Lys)]	~50 nM	100 nM	100 nM
cyclo([βArg]LSKDK) [cyclic peptide P2, c(rLSKDK)]		> 500 nM	
cyclo(R[βLeu]SKDK) [cyclic peptide P3, c(RlSKDK)]		> 500 nM	

Reference: patent US20170107258A1 (CANCER RESEARCH TECHNOLOGY, published 2017)
